{
  "source": "paper doi:10.1101/2020.05.29.124305",
  "about": "(bioRxiv, 2020)",
  "molecular_target": "the molecule itself",
  "experiment": "cryo-EM structure",
  "data": [
    {"protein": "Human ASCT2 (Alanine-Serine-Cysteine Transporter 2, SLC1A5) (natural protein) MVADPPRDSKGLAAAEPTANGGLALASIEDQGAAAGGYCGSRDQVRRCLRANLLVLLTVVAVVAGVALGLGVSGAGGALALGPERLSAFVFPGELLLRLLRMIILPLVVCSLIGGAASLDPGALGRLGAWALLFFLVTTLLASALGVGLALALQPGAASAAINASVGAAGSAENAPSKEVLDSFLDLARNIFPSNLVSAAFRSYSTTYEERNITGTRVKVPVGQEVEGMNILGLVVFAIVFGVALRKLGPEGELLIRFFNSFNEATMVLVSWIMWYAPVGIMFLVAGKIVEMEDVGLLFARLGKYILCCLLGHAIHGLLVLPLIYFLFTRKNPYRFLWGIVTPLATAFGTSSSSATLPLMMKCVEENNGVAKHISRFILPIGATVNMDGAALFQCVAAVFIAQLSQQSLDFVKIITILVTATASSVGAAGIPAGGVLTLAIILEAVNLPVDHISLILAVDWLVDRSCTVLNVEGDALGAGLLQNYVDRTESRSTEPELIQVKSELPLDPLPVPTEEGNPLLKHYRGPAGDATVASEKESVM", "values": [
      {"measurement": "stoichiometry N", "result": 3}
    ]}
  ]
}
